Assay results as given in patent publication US7893197B2, “Relaxin-3 chimeric polypeptides and their preparation and use” (Janssen Pharmaceutica N.V., priority 2005, dated 2011).

Experiments:
LGR7 = molecular target: T1, LGR7 (Homo sapiens, UniProt Q9HBX9); assay: Radioligand competition binding, [125I]-relaxin-3, live transfected COS-7 cells
T1 construct: Human LGR7 cDNA containing the complete coding region was PCR amplified; expressed in transfected cells
T1 sequence (Q9HBX9 1-757): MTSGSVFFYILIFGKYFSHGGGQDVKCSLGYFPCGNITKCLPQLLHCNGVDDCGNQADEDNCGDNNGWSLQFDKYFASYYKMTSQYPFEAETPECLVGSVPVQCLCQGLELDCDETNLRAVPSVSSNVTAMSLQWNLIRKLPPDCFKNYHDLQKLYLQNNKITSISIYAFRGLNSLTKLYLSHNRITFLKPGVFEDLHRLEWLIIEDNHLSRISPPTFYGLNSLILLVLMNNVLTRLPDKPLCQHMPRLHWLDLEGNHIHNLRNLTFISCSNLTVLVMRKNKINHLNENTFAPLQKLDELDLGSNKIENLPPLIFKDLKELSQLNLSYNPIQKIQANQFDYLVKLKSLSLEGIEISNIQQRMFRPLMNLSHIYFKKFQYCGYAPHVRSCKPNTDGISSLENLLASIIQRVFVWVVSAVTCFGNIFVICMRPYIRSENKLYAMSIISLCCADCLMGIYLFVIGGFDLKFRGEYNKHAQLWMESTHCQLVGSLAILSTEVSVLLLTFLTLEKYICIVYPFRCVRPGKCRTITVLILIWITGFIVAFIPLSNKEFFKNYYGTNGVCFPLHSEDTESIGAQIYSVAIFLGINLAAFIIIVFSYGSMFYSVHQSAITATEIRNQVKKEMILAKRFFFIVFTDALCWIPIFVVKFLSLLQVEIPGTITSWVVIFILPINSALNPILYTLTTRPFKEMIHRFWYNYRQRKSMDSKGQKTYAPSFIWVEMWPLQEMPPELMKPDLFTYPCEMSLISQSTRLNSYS
Method: For GPCR135, GPCR142, and LGR7, [^125I]-relaxin-3 was used as the radioligand at a final concentration of 100 pM. Different unlabeled peptides were used in the binding assay as the competitors. […] Different unlabeled peptides including relaxin-3 chimeras at various concentrations were added to the binding assay as the competitors. Data represent mean±SEM (n=3).
Radioligand binding assays for LGR7 and LGR8 were performed using live COS-7 cells transiently transfected with LGR7 or LGR8 expression plasmids in 15-cm culture dishes using LipofectAmine (Invitrogen). Two days after transfection, the transfected cells were detached from the 15-cm culture dished using phosphate buffered saline (PBS) plus 10 mM EDTA, seeded into 96-well opaque poly-D-lysine coated culture plates and used for radioligand binding assays. For LGR7, [^125I]-relaxin-3 was used as the tracer. […] [^125I]-labeled tracer was added in binding reactions at a final concentration of 100 pM in binding buffer containing DMEM plus 50 mM HEPES and 1% bovine serum albumin. Unlabeled relaxin-3 and relaxin-3 chimeric polypeptides were added at various concentrations to the binding assays as the competitors, as indicated (FIG. 3). The binding mixtures were incubated at room temperature for 1 hour. The unbound radioligand was removed by aspiration of the binding buffer. The cells were washed with PBS. The bound radioligand was counted in a scintillation counter (TopCount/NTX). The results were analyzed using Prism 3.0 program (Graphpad, San Diego, Calif.). The IC50 values represent the ligand concentrations that inhibit 50% of the maximum specific binding.

LGR8 = molecular target: T2, LGR8 (Homo sapiens, UniProt Q8WXD0); assay: Radioligand competition binding, [125I]-INSL3, live transfected COS-7 cells; settings: highest concentration 1 μM
T2 construct: Human LGR8 cDNA containing the complete coding region was PCR amplified; expressed in transfected cells
Text: FIGS. 3A-3D illustrate the characterization of various relaxin-3 chimeric polypeptides using radioligand binding assays. Different relaxin-3 chimeric polypeptides were characterized for their receptor binding properties for human recombinant GPCR135 (FIG. 3A), GPCR142 (FIG. 3B), LGR7 (FIG. 3C), or LGR8 (FIG. 3D). For GPCR135, GPCR142, and LGR7, [^125I]-relaxin-3 was used as the radioligand at a final concentration of 100 pM. Different unlabeled peptides were used in the binding assay as the competitors. For LGR8, [^125I]-INSL3 was used as the radioligand at a final concentration of 100 pM. Different unlabeled peptides including relaxin-3 chimeras at various concentrations were added to the binding assay as the competitors. Data represent mean±SEM (n=3).
Radioligand binding assays for LGR7 and LGR8 were performed using live COS-7 cells transiently transfected with LGR7 or LGR8 expression plasmids in 15-cm culture dishes using LipofectAmine (Invitrogen). Two days after transfection, the transfected cells were detached from the 15-cm culture dished using phosphate buffered saline (PBS) plus 10 mM EDTA, seeded into 96-well opaque poly-D-lysine coated culture plates and used for radioligand binding assays. For LGR7, [^125I]-relaxin-3 was used as the tracer. For LGR8, [^125I]-INSL3 (specific activity: 2200 Ci/mmol) was used as the tracer. [^125I]-labeled tracer was added in binding reactions at a final concentration of 100 pM in binding buffer containing DMEM plus 50 mM HEPES and 1% bovine serum albumin. Unlabeled relaxin-3 and relaxin-3 chimeric polypeptides were added at various concentrations to the binding assays as the competitors, as indicated (FIG. 3). The binding mixtures were incubated at room temperature for 1 hour. The unbound radioligand was removed by aspiration of the binding buffer. The cells were washed with PBS. The bound radioligand was counted in a scintillation counter (TopCount/NTX). The results were analyzed using Prism 3.0 program (Graphpad, San Diego, Calif.). The IC50 values represent the ligand concentrations that inhibit 50% of the maximum specific binding.

GPCR135 = molecular target: T3, GPCR135 (Homo sapiens, UniProt Q9NSD7); assay: Inhibition of forskolin stimulated β-galactosidase expression in SK-N-MC/β-gal cells; type: cell-based
T3 construct: expressed in transfected cells
T3 sequence (Q9NSD7 1-469): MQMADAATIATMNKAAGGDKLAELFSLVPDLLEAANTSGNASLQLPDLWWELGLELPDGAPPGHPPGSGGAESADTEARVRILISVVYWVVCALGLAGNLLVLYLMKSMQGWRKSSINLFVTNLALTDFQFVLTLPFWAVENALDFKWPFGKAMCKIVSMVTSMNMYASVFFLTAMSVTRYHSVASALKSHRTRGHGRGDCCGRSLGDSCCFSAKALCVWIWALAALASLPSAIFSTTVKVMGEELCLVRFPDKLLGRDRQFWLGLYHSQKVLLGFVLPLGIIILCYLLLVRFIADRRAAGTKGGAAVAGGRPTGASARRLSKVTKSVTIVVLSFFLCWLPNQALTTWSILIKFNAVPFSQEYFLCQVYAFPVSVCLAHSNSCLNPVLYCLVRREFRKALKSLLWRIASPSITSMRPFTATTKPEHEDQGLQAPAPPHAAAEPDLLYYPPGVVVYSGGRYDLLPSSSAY
Method: (§1) In FIG. 1A, SK-N-MC/β-gal cells expressing human GPCR135 were stimulated with relaxin-3, relaxin-3 B-chain, porcine relaxin, or INSL3 at various concentrations to inhibit the forskolin stimulated β-galactosidase expression. Forskolin was added to cells at a final concentration of 5 μM to stimulate the β-galactosidase expression. FIG. 1B depicts results for SK-N-MC/β-gal cells expressing human GPCR142 stimulated as in FIG. 1A. In FIG. 1C, SK-N-MC/β-gal cells expressing human LGR7 were stimulated with relaxin-3, relaxin-3 B-chain, porcine relaxin, and INSL3 at various concentrations to induce the β-galactosidase expression. The intracellular β-galactosidase activities were measured by a colorimetric assay using CRGP as the substrate and reading the absorbance at a wavelength of 570 nm. For FIG. 1D, SK-N-MC/β-gal cells expressing human LGR8 were stimulated as in FIG. 1C.
(§2) Different chimeric polypeptides at various concentrations were added to SK-N-MC/β-gal cells expressing human GPCR135 (FIG. 4A) or GPCR142 (FIG. 4B) to inhibit forskolin stimulated β-galactosidase expression. […] In parallel, chimeric polypeptides at various concentrations were added to SK-N-MC/β-gal cells expressing human LGR7 (FIG. 4C) and LGR8 (FIG. 4D) to stimulate β-galactosidase expression. Relaxin-3 and INSL3 were used as positive controls for LGR7 and LGR8, respectively. Intracellular β-galactosidase activity was measured by a colorimetric assay using CRGP as the substrate and reading the absorbance at wavelength of 570 nm. Data represent mean±SEM (n=3).
(§3) In such SK-N-MC/β-gal cells, an increase in intracellular cAMP concentration leads to increased β-galactosidase gene expression, the activity of which is measured using Chlorophenol Red-β-D-Galactopyranoside (CPRG) as the substrate.
(§4) The inventive chimeric polypeptides were each independently tested for their ability to activate either GPCR135, GPCR142, LGR7, or LGR8, respectively, in separate pools of SK-N-MC/β-gal cells (see supra), each pool stably expressing one of the respective receptors, as indicated (FIG. 4).
(§5) Cells were seeded in 96-well tissue culture plate at a density of 30,000 cells/well in MEM plus 10% fetal serum, sodium pyruvate, penicillin, streptomycin, and G418 (400 mg/L). For cells expressing GPCR135 or GPCR142, forskolin was added to cells at a final concentration of 5 μM to stimulate intracellular cAMP accumulation. Different concentrations of each of the inventive polypeptides were then added to the cells to inhibit the forskolin induced cAMP accumulation. For cells expressing LGR7 or LGR8, intracellular cAMP was stimulated with each of the inventive chimeric polypeptides at various concentrations.
(§6) For all cells, after adding the chimeric polypeptides, cells were incubated for 6 additional hours in 37° C. incubator. The media was then aspirated and the β-galactosidase activities measured as previously described (Liu et al., 2001, Molecular Pharmacology, 59:420-426). The results were analyzed by Prism 3.0 software.

GPCR142 = molecular target: T4, GPCR142 (Homo sapiens, UniProt Q8TDU9, L329S); assay: as above; type: cell-based
T4 construct: expressed in transfected cells
Method: as §1, §2, §3, §4, §5, §6

[1] = highest concentration tested 1 μM
[2] = inhibition of 5 μM forskolin stimulated β-galactosidase expression, mean ± SEM, n = 3

T2 sequence (Q8WXD0 whole entry): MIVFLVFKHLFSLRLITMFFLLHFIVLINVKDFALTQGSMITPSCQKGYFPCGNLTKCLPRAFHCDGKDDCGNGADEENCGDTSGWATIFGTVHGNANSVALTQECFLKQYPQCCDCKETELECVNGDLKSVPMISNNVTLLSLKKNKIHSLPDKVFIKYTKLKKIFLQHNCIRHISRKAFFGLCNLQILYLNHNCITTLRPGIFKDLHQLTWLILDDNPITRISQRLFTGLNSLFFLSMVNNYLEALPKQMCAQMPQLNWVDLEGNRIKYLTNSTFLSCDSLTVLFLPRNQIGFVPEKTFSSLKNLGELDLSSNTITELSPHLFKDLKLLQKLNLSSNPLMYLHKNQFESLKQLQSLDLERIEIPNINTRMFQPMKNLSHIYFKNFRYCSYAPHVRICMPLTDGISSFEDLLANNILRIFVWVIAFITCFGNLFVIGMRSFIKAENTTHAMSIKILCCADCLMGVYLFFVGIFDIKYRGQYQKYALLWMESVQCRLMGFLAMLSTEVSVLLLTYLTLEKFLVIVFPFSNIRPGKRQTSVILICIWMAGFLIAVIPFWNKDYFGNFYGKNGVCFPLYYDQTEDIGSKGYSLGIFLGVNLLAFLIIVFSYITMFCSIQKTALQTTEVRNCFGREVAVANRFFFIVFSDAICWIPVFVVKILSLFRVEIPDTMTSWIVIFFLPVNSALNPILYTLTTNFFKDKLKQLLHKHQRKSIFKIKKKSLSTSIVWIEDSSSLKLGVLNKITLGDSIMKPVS
T4 sequence (Q8TDU9 whole entry L329S): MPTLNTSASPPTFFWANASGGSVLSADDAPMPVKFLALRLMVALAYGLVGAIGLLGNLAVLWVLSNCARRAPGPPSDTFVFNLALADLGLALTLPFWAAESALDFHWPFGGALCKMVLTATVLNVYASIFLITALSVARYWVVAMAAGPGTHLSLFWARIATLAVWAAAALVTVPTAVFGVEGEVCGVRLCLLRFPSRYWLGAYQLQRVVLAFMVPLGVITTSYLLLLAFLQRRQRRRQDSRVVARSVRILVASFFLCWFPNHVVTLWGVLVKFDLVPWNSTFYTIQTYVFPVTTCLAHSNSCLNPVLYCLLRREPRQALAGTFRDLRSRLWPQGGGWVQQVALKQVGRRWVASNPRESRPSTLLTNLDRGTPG

Substance | binding to LGR7, in words (LGR7; [1]) | binding affinity for LGR8, in words (LGR8) | agonist activity at GPCR135, in words (GPCR135; [1]) | agonist activity at GPCR142, in words (GPCR142; [1]) | affinity for LGR7 (LGR7; discussion) [nM] | EC50 to activate GPCR135 (GPCR135; [2]) | EC50 to activate GPCR142 (GPCR142; [2])
R3/I4: chimeric polypeptide: human relaxin-3 B-chain and INSL4 A-chain; mature polypeptide SEQ ID NO:22 (RAAPYGVRLCGREFIRAVIFTCGGSRWFDPFCCEVICDDGTSVKLC; Human Relaxin-3/Insulin-like 4 chimeric mature polypeptide) | inactive | no binding affinity | stimulated GPCR135 or GPCR142 at the highest concentration (1 μM) tested only | stimulated GPCR135 or GPCR142 at the highest concentration (1 μM) tested only | – | – | –
R3/I6: chimeric polypeptide: human relaxin-3 B-chain and INSL6 A-chain; mature polypeptide SEQ ID NO:24 (RAAPYGVRLCGREFIRAVIFTCGGSRWGYSEKCCLTGCTKEELSIAC; Human Relaxin-3/Insulin-like 6 chimeric mature polypeptide) | – | no binding affinity | – | – | 10 to 15 | – | –
R3/I5: chimeric polypeptide: human relaxin-3 B-chain and INSL5 A-chain; mature polypeptide SEQ ID NO:23 (RAAPYGVRLCGREFIRAVIFTCGGSRWQDLQTLCCTDGCSMTDLSALC; Human Relaxin-3/Insulin-like 5 chimeric mature polypeptide) | – | no binding affinity | – | – | – | low nanomolar range | low nanomolar range
